From the supplement of paper PMC10724198
± gives the standard deviation of the averaged measurements.

How the values were obtained:
Saccharomyces cerevisiae [1] = assay: protein stability index of tFT-peptide fusion (C-terminal peptide) (PSI (0-1 scale)); higher = more stable (slower turnover); details: genetic background: wild type; temperature: 30 C
Saccharomyces cerevisiae [2] = assay: as above
Description: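 MPS profiling in S. cerevisiae of the tFT-X12 degron library: putative degron peptides plus stable controls, 12 aa, fused to the C-terminus of a sfGFP-mCherry timer. Cells are FACS-sorted into 8 mCherry/sfGFP bins and deep-sequenced. PSI runs from 0 (unstable) to 1 (stable). Backgrounds are wild type, das1Δ and doa10Δ at 30 °C, and wild type, das1Δ, cdc34-1 and cdc53-1 at 37 °C; 2-3 technical replicates each.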

[3] = genetic background: cdc34-1, temperature: 37 C
[4] = genetic background: cdc53-1, temperature: 37 C
[5] = genetic background: das1 deletion, temperature: 30 C
[6] = genetic background: das1 deletion, temperature: 37 C
[7] = genetic background: doa10 deletion, temperature: 30 C
[8] = genetic background: wild type, temperature: 30 C
[9] = genetic background: wild type, temperature: 37 C
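Also: PSI is a weighted mean of sequencing reads over stability bins, variants kept only with over 10 reads, mCherry proximal and sfGFP distal, peptide attached via GGGS linker.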

Row | Sequence | protein stability index (Saccharomyces cerevisiae [1]) | protein stability index (Saccharomyces cerevisiae [2]; [3]) | protein stability index (Saccharomyces cerevisiae [2]; [4]) | protein stability index (Saccharomyces cerevisiae [2]; [5]) | protein stability index (Saccharomyces cerevisiae [2]; [6]) | protein stability index (Saccharomyces cerevisiae [2]; [7]) | protein stability index (Saccharomyces cerevisiae [2]; [8]) | protein stability index (Saccharomyces cerevisiae [2]; [9])
1 | FLWAVSLCRSLV | 0.312 ± 0.029 | 0.607 ± 0.029 | 0.655 ± 0.022 | 0.548 ± 0.035 | 0.662 ± 0.015 | 0.178 ± 0.017 | 0.218 ± 0.026 | 0.385 ± 0.014
2 | FMRKLVVLVVLG | 0.347 ± 0.089 | 0.257 ± 0.029 | 0.307 ± 0.013 | 0.222 ± 0.031 | 0.4342 ± 0.0023 | 0.1923 ± 0.0019 | 0.206 ± 0.028 | 0.417 ± 0.046
3 | FMVYRIHSSAVM | 0.158 ± 0.0045 | 0.127 ± 0.017 | 0.172 ± 0.014 | 0.251 ± 0.06 | 0.149 ± 0.006 | 0.265 ± 0.028 | 0.257 ± 0.038 | 0.14 ± 0.014
4 | FPGPPSPPPSYF | 0.706 ± 0.011 | 0.699 ± 0.048 | 0.776 ± 0.001 | 0.639 ± 0.01 | 0.766 ± 0.0078 | 0.6435 ± 0.0011 | 0.6466 ± 0.0022 | 0.7451 ± 0.0065
5 | FPVWTALLTVRA | 0.262 ± 0.016 | 0.0896 ± 0.022 | 0.128 ± 0.015 | 0.181 ± 0.035 | 0.259 ± 0.0096 | 0.14 ± 0.024 | 0.189 ± 0.014 | 0.22 ± 0.029
6 | FRCRFLLPFYSV | 0.482 ± 0.019 | 0.673 ± 0.013 | 0.724 ± 0.0096 | 0.632 ± 0.0089 | 0.733 ± 0.01 | 0.403 ± 0.013 | 0.438 ± 0.014 | 0.603 ± 0.0033
7 | FRLCQRPVFLLS | 0.35 ± 0.0061 | 0.586 ± 0.054 | 0.669 ± 0.014 | 0.542 ± 0.018 | 0.676 ± 0.0091 | 0.182 ± 0.0059 | 0.22 ± 0.017 | 0.408 ± 0.02
8 | FSCSRNVLVTVV | 0.32 ± 0.049 | 0.192 ± 0.029 | 0.197 ± 0.019 | 0.229 ± 0.029 | 0.344 ± 0.0087 | 0.178 ± 0.015 | 0.209 ± 0.013 | 0.256 ± 0.0056
9 | FSFPIIFFGMFL | 0.415 ± 0.0083 | 0.445 ± 0.021 | 0.463 ± 0.0054 | 0.394 ± 0.02 | 0.542 ± 0.006 | 0.426 ± 0.019 | 0.324 ± 0.033 | 0.51 ± 0.021
10 | FSFSFWALLWFP | 0.466 ± 0.0093 | 0.495 ± 0.029 | 0.54 ± 0.017 | 0.438 ± 0.022 | 0.531 ± 0.0093 | 0.48 ± 0.031 | 0.429 ± 0.02 | 0.537 ± 0.02
11 | FSFVVRMFFRIL | 0.154 ± 0.014 | 0.218 ± 0.009 | 0.266 ± 0.0039 | 0.39 ± 0.038 | 0.408 ± 0.022 | 0.0869 ± 0.019 | 0.0811 ± 0.015 | 0.0988 ± 0.0082
12 | FSLSLFPYPFSL | 0.755 ± 0.03 | 0.698 ± 0.022 | 0.764 ± 0.045 | 0.686 ± 0.02 | 0.765 ± 0.011 | 0.686 ± 0.01 | 0.672 ± 0.021 | 0.755 ± 0.018
13 | FSSFLGFIRFFV | 0.426 ± 0.052 | 0.661 ± 0.088 | 0.751 ± 0.0091 | 0.655 ± 0.022 | 0.751 ± 0.016 | 0.286 ± 0.018 | 0.315 ± 0.022 | 0.59 ± 0.04
14 | FTLFFVASVLDL | 0.446 ± 0.0073 | 0.48 ± 0.021 | 0.518 ± 0.01 | 0.378 ± 0.03 | 0.53241 ± 0.00048 | 0.358 ± 0.007 | 0.386 ± 0.026 | 0.511 ± 0.011
15 | FVGLFEYILLFV | 0.29 ± 0.036 | 0.186 ± 0.009 | 0.167 ± 0.029 | 0.201 ± 0.028 | 0.358 ± 0.0079 | 0.263 ± 0.0056 | 0.201 ± 0.028 | 0.348 ± 0.0072
16 | FVLLTFLFFWQF | 0.328 ± 0.03 | 0.349 ± 0.014 | 0.441 ± 0.028 | 0.321 ± 0.031 | 0.476 ± 0.019 | 0.287 ± 0.007 | 0.299 ± 0.018 | 0.441 ± 0.016
17 | FVLWYFCCVGCM | 0.321 ± 0.016 | 0.241 ± 0.017 | 0.305 ± 0.018 | 0.232 ± 0.026 | 0.366 ± 0.011 | 0.196 ± 0.015 | 0.226 ± 0.03 | 0.342 ± 0.03
18 | FVRCFWPFVFVF | 0.203 ± 0.023 | 0.17 ± 0.01 | 0.142 ± 0.021 | 0.222 ± 0.031 | 0.332 ± 0.0095 | 0.139 ± 0.0072 | 0.126 ± 0.0099 | 0.14 ± 0.012
19 | FVRGWGIVFSLA | 0.41 ± 0.01 | 0.571 ± 0.031 | 0.599 ± 0.023 | 0.438 ± 0.036 | 0.594 ± 0.015 | 0.225 ± 0.012 | 0.268 ± 0.016 | 0.467 ± 0.011
20 | FVWWFFFLSVVS | 0.26 ± 0.018 | 0.277 ± 0.0019 | 0.306 ± 0.023 | 0.265 ± 0.032 | 0.3987 ± 0.0029 | 0.255 ± 0.016 | 0.216 ± 0.018 | 0.334 ± 0.025
21 | FWILLRVLIFVL | 0.266 ± 0.011 | 0.176 ± 0.027 | 0.172 ± 0.0087 | 0.18 ± 0.033 | 0.321 ± 0.0095 | 0.182 ± 0.0047 | 0.175 ± 0.028 | 0.246 ± 0.03
22 | FYFMGFFFGLGM | 0.516 ± 0.046 | 0.589 ± 0.021 | 0.627 ± 0.052 | 0.519 ± 0.047 | 0.617 ± 0.057 | 0.481 ± 0.016 | 0.504 ± 0.016 | 0.597 ± 0.023
23 | FYLFPSLPLLLL | 0.452 ± 0.044 | 0.424 ± 0.018 | 0.432 ± 0.022 | 0.422 ± 0.018 | 0.544 ± 0.03 | 0.477 ± 0.023 | 0.339 ± 0.03 | 0.46 ± 0.0072
24 | FYLSFWFLIFFF | 0.312 ± 0.0092 | 0.227 ± 0.011 | 0.251 ± 0.023 | 0.273 ± 0.031 | 0.353 ± 0.029 | 0.325 ± 0.036 | 0.215 ± 0.036 | 0.315 ± 0.017
25 | GCCFVCSVFWWG | 0.431 ± 0.011 | 0.407 ± 0.0055 | 0.493 ± 0.0055 | 0.348 ± 0.031 | 0.528 ± 0.0081 | 0.327 ± 0.014 | 0.353 ± 0.015 | 0.507 ± 0.011
26 | GCWRVELLVFMC | 0.0681 ± 0.02 | 0.0459 ± 0.0044 | 0.205 ± 0.011 | 0.185 ± 0.03 | 0.33 ± 0.015 | 0.053 ± 0.02 | 0.0595 ± 0.017 | 0.0748 ± 0.03
27 | GDFYCSSVVLVV | 0.306 ± 0.0044 | 0.401 ± 0.013 | 0.401 ± 0.036 | 0.332 ± 0.032 | 0.484 ± 0.018 | 0.278 ± 0.014 | 0.32 ± 0.031 | 0.445 ± 0.0082
28 | GEGISCLLRRLT | 0.413 ± 0.057 | 0.662 ± 0.013 | 0.709 ± 0.018 | 0.661 ± 0.024 | 0.713 ± 0.036 | 0.2625 ± 0.00058 | 0.286 ± 0.022 | 0.544 ± 0.033
29 | GFLAVTVACVWR | 0.255 ± 0.048 | 0.0513 ± 0.0097 | 0.136 ± 0.0021 | 0.154 ± 0.018 | 0.258 ± 0.013 | 0.13 ± 0.014 | 0.145 ± 0.037 | 0.213 ± 0.026
30 | GFLWFCGVPVGW | 0.571 ± 0.2 | 0.695 ± 0.026 | 0.7385 ± 0.0044 | 0.609 ± 0.017 | 0.72 ± 0.027 | 0.613 ± 0.031 | 0.613 ± 0.012 | 0.707 ± 0.018
